Assay results: article PMC3891853
Values belong to the molecule of their own block, whether it stands above or below them.

Experiments:
[1] = molecular target: HA-tagged glucocorticoid receptor (GR) (UniProt P04150); assay: co-immunoprecipitation with anti-Flag agarose, Western blot densitometry; settings: HEK293 cells, transient transfection, mean + SEM, N = 3, parent: 100, read off a plot
[2] = molecular target: Hsc70/Hsp70; assay: co-immunoprecipitation with anti-Flag agarose, densitometry of co-precipitated Hsc/Hsp70; settings: HEK293 cells, transient transfection; mean + SEM, N = 3; parent: 100; read off a plot
[3] = molecular target: Hsc70, in vitro translated and labeled (UniProt P11142)
UniProt P11142, sequence (P11142 whole entry): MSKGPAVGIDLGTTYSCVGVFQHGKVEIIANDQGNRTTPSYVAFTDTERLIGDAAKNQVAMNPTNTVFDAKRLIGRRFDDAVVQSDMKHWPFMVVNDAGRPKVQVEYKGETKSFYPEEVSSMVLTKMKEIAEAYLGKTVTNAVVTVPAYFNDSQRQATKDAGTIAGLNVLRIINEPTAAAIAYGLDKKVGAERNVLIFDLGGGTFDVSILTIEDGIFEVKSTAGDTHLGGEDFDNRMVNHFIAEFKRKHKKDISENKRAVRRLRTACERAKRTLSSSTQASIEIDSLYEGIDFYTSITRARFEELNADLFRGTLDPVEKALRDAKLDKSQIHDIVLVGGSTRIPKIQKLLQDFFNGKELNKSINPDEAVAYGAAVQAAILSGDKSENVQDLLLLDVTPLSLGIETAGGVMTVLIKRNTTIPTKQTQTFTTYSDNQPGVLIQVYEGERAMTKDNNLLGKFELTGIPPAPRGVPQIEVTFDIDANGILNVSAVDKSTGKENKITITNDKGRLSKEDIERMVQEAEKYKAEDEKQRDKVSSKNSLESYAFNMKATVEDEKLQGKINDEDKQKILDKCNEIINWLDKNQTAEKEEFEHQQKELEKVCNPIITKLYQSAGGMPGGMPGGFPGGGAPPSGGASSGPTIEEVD

UniProt P04150, sequence (P04150 whole entry): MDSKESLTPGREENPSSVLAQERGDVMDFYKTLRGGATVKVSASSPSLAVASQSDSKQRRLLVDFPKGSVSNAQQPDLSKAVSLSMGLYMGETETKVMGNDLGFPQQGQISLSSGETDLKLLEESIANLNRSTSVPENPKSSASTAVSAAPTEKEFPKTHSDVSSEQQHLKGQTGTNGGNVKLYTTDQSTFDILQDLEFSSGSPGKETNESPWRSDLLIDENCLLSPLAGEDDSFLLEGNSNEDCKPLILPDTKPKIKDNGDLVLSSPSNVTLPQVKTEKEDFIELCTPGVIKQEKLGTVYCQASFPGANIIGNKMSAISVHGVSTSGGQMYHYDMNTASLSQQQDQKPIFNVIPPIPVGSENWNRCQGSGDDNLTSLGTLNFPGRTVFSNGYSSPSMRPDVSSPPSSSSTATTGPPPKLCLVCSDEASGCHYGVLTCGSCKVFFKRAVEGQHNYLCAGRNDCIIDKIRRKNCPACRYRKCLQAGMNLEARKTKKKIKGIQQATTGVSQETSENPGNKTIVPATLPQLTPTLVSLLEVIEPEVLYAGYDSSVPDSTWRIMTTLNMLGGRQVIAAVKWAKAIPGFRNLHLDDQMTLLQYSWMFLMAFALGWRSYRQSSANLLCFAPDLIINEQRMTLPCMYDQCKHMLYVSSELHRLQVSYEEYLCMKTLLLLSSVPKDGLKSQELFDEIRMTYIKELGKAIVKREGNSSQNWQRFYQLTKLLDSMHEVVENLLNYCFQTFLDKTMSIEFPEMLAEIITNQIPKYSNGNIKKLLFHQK

percent of parent (% (BAG-1M = 100%)) [1]: 18
percent of parent (% (BAG-1M = 100%)) [2]: 6
Molecule: Flag-tagged wild-type Bcl2-associated athanogene 1, medium isoform (BAG-1M) R237A

ATPase activity of purified Hsc70 with DJA2 and HspBP1 mut (each 4 µM, 30°C) [3]: 7.26 min⁻¹
B1: purified HspBP1_mut (A137R, K249A; His-tagged) (natural protein)
chain: MSDEGSRGSRLPLALPPASQGCSSGGGGGGSSAGGSGNSRPPRNLQGLLQMAITAGSEEPDPPPEPMSEERRQWLQEAMSAAFRGQREEVEQMKSCLRVLSQPMPPTAGEAEQAADQQEREGALELLADLCENMDNRADFCQLSGMHLLVGRYLEAGAAGLRWRAAQLIGTCSQNVAAIQEQVLGLGALRKLLRLLDRDACDTVRVKALFAISCLVREQEAGLLQFLRLDGFSVLMRAMQQQVQKLKVASAFLLQNLLVGHPEHKGTLCSMGMVQQLVALVRTEHSPFHEHVLGALCSLVTDFPQGVRECREPELGLEELLRHRCQLLQQHEEYQEELEFCEKLLQTCFSSPADDSMDR
